Measurements taken from publication PMC8626477.

Tests used:
[1] = molecular target: E2 of the Chaetomium thermophilum pyruvate dehydrogenase complex (PDHc) (Chaetomium thermophilum); test: cryo-EM structure; native C. thermophilum cell extract, SEC fraction 6, vitrified at 0.3 mg/mL total protein; 10249 particles; reconstructions with icosahedral (3.85 Å), C2 (6.21 Å) and C1 (7.62 Å) symmetry
[2] = molecular target: E3BP of the Chaetomium thermophilum pyruvate dehydrogenase complex (PDHc) (Chaetomium thermophilum); test: as above

## E2 of the Chaetomium thermophilum pyruvate dehydrogenase complex (PDHc) (enzyme)
[1]
  stoichiometry N: 60

## E3BP of the Chaetomium thermophilum pyruvate dehydrogenase complex (PDHc) (natural protein)
[2]
  stoichiometry N: 3
[1]
  stoichiometry N: 12
